In the supplement of paper PMC7125110:
± gives the standard error. For some assays here: Variants at the floor of the assay were thinned out.

B1: glmS ribozyme (parent)
chain: AUAAAAGCGCCAGAACUACAGAAAUGUAGUUGACGAGGAGGAGGUUUAUCGAAUUUUCGGCGGAUGCCUCCAAA

Experiments:
Conditions in all cases: with glucosamine-6-phosphate
glucosamine-6-phosphate [1] = variants of: B1; experiment: kcat; higher = faster cleavage; RNA array
In short: (§1)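 kcat and KM were obtained from weighted Michaelis–Menten fits across concentrations of kobs values. Those came from one- or two-exponential decay fits to per-tile medians normalised to baseline and to non-cleaving reference variants. The variants were barcoded ribozymes transcribed in situ by E. coli RNA polymerase on sequenced MiSeq chips and tracked through a hybridised Cy3 probe at 37 °C, with 40 μM to 10 mM glucosamine-6-phosphate in HEPES/KCl/Mg(OAc)2 buffer flowed in.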

glucosamine-6-phosphate [2] = variants of: B1; experiment: KM; higher = weaker cofactor use; RNA array
In short: as §1

glucosamine-6-phosphate [3] = variants of: B1; experiment: self-cleavage kobs at 40 uM GlcN6P; higher = faster cleavage; RNA array
In short: as §1

glucosamine-6-phosphate [4] = variants of: B1; experiment: self-cleavage kobs at 160 uM GlcN6P; higher = faster cleavage; RNA array
In short: as §1

glucosamine-6-phosphate [5] = variants of: B1; experiment: self-cleavage kobs at 640 uM GlcN6P; higher = faster cleavage; RNA array
In short: as §1

glucosamine-6-phosphate [6] = variants of: B1; experiment: self-cleavage kobs at 10000 uM GlcN6P; higher = faster cleavage; RNA array
In short: as §1

glucosamine-6-phosphate [7] = variants of: B1; experiment: self-cleavage kobs at 2500 uM GlcN6P; higher = faster cleavage; RNA array
In short: as §1

Row | Variant | kcat (glucosamine-6-phosphate [1]) | KM (glucosamine-6-phosphate [2]) | self-cleavage kobs at 40 uM GlcN6P (glucosamine-6-phosphate [3]) | self-cleavage kobs at 160 uM GlcN6P (glucosamine-6-phosphate [4]) | self-cleavage kobs at 640 uM GlcN6P (glucosamine-6-phosphate [5]) | self-cleavage kobs at 10000 uM GlcN6P (glucosamine-6-phosphate [6]) | self-cleavage kobs at 2500 uM GlcN6P (glucosamine-6-phosphate [7])
1 | U54C C70U | 0.00794 ± 0.0014 s⁻¹ | 507 ± 130 µM | 0.000628 ± 8e-05 s⁻¹ | 0.00162 ± 0.00035 s⁻¹ | 0.00435 ± 0.0008 s⁻¹ | 0.00879 ± 0.0016 s⁻¹ | 
2 | G38U G66C C71U | 1.04e-05 ± 1e-06 s⁻¹ |  |  |  |  |  | 
3 | A14C C68G | 2.74e-05 ± 5.8e-06 s⁻¹ |  |  |  | 4.49e-05 ± 1.5e-05 s⁻¹ | 2.58e-05 ± 8.4e-06 s⁻¹ | 
4 | U31C A64G | 0.00541 ± 0.0022 s⁻¹ |  | 7.83e-05 ± 1.1e-05 s⁻¹ | 0.000159 ± 2.1e-05 s⁻¹ | 0.00109 ± 0.00013 s⁻¹ | 0.00363 ± 0.00047 s⁻¹ | 0.00224 ± 0.00024 s⁻¹
5 | A48U C70G | 3.29e-05 ± 1e-05 s⁻¹ |  |  |  | 3.69e-05 ± 1.1e-05 s⁻¹ |  | 4.89e-05 ± 9.2e-06 s⁻¹
6 | G44C U55G | 5.43e-05 ± 1.8e-05 s⁻¹ |  |  |  |  | 4.43e-05 ± 2.1e-05 s⁻¹ | 5.66e-05 ± 2.2e-05 s⁻¹
7 | U46C U69C | 0.00112 ± 0.0002 s⁻¹ | 644 ± 250 µM | 5.23e-05 ± 2.2e-05 s⁻¹ |  | 0.000644 ± 0.00013 s⁻¹ | 0.000936 ± 0.00019 s⁻¹ | 0.00117 ± 0.00032 s⁻¹
8 | C58G U69G | 4.22e-05 ± 1.4e-05 s⁻¹ |  |  | 6.03e-05 ± 1.5e-05 s⁻¹ | 5.7e-05 ± 1.7e-05 s⁻¹ |  | 5.1e-05 ± 1.6e-05 s⁻¹
9 | A12C C71U | 0.0215 ± 0.0089 s⁻¹ |  | 0.000587 ± 7e-05 s⁻¹ | 0.00112 ± 0.00015 s⁻¹ | 0.00448 ± 0.00062 s⁻¹ | 0.0164 ± 0.0023 s⁻¹ | 0.0206 ± 0.0035 s⁻¹
10 | G9A U55A | 2.49e-05 ± 5.6e-07 s⁻¹ | 1410 ± 200 µM |  |  |  | 2.18e-05 ± 9.9e-06 s⁻¹ | 
11 | G13U C50G | 4.84e-05 ± 1.3e-05 s⁻¹ |  | 4.61e-05 ± 1.2e-05 s⁻¹ | 8.07e-05 ± 1.7e-05 s⁻¹ | 6.9e-05 ± 1.6e-05 s⁻¹ | 2.19e-05 ± 1.1e-05 s⁻¹ | 5.61e-05 ± 1.2e-05 s⁻¹
12 | A52G U54A | 0.00109 ± 0.00027 s⁻¹ | 1560 ± 590 µM |  | 9.56e-05 ± 1.7e-05 s⁻¹ | 0.000442 ± 7.6e-05 s⁻¹ | 0.00101 ± 0.0002 s⁻¹ | 0.00057 ± 0.00011 s⁻¹
13 | A39C G66C | 0.00165 ± 0.00036 s⁻¹ | 2780 ± 960 µM | 3.24e-05 ± 1.1e-05 s⁻¹ | 7.03e-05 ± 1.6e-05 s⁻¹ | 0.000348 ± 6.6e-05 s⁻¹ | 0.0012 ± 0.00016 s⁻¹ | 0.00104 ± 0.00017 s⁻¹
14 | A6U C71G | 3.27e-05 ± 8.4e-06 s⁻¹ |  |  |  | 5.72e-05 ± 1.3e-05 s⁻¹ | 2.69e-05 ± 8e-06 s⁻¹ | 2.85e-05 ± 1e-05 s⁻¹
15 | G32U C71G | 0.000107 ± 7.3e-06 s⁻¹ | 741 ± 280 µM |  |  | 6.13e-05 ± 1.6e-05 s⁻¹ | 0.000102 ± 8.2e-06 s⁻¹ | 7.51e-05 ± 9.8e-06 s⁻¹
16 | A14U G32C | 0.000397 ± 4e-05 s⁻¹ | 3050 ± 580 µM |  |  | 6.36e-05 ± 8.6e-06 s⁻¹ | 0.000294 ± 2.6e-05 s⁻¹ | 0.000199 ± 1.9e-05 s⁻¹
